This note sets out measurements from PMC6315623.

For this assay, the target named is BS69 MYND domain (residues 427-602) fused to a B42 activation domain (UniProt Q15326). Nature of the assay: yeast two-hybrid (β-galactosidase activity). Conditions: n = 3; parent: est. 1; read off a plot.
BS69 MYND domain (residues 427-602) fused to a B42 activation domain, sequence (Q15326 427-602): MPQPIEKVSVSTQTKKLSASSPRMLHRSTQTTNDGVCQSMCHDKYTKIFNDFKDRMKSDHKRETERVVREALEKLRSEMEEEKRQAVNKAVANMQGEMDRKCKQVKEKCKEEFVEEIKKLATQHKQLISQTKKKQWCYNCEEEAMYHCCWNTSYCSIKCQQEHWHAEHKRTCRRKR
As to “HAdV-D9 E1A PXLXP motif fragment, wildtype, LexA DBD fusion I9V”, the response (% of HAdV-A12 positive control) was determined as 1.

As for “HAdV-D9 E1A PXLXP motif fragment, wildtype, LexA DBD fusion P10C”, the response (% of HAdV-A12 positive control) is 1.5.

Consider “HAdV-D9 E1A PXLXP motif fragment, wildtype, LexA DBD fusion T3P”, for which the response (% of HAdV-A12 positive control) amounted to 59.

On to “HAdV-D9 E1A PXLXP motif fragment, wildtype, LexA DBD fusion T5V”, for which the response (% of HAdV-A12 positive control) came out at 1.
